The chains are these.
T1: recombinant human MASP1 active protease (amino acids 297-699, C-terminal His Tag) (human, UniProt P48740 297-699)
T1 sequence: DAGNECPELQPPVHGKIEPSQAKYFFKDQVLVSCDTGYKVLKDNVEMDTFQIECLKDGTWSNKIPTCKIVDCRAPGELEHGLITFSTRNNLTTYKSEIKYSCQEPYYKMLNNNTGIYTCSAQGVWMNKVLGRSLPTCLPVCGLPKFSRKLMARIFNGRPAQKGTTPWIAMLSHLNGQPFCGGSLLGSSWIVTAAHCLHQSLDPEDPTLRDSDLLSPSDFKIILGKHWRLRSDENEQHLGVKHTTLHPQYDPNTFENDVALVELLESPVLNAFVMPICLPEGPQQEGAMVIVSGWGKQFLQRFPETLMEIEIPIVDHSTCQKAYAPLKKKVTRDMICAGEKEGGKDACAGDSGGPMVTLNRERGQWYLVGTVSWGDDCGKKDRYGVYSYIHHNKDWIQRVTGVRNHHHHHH

B1: Example 360: (4-(3,5-Dimethyl-1,2-oxazol-4-yl)-L-phenylalanine)-IC+SRSLP-(Oic)-I-(Pen)+IP-NH2 (peptide)
peptide: [X7]ICSRSLP[Oic]I[Pen]IP-NH2
modifications: disulfide 3-11; N-terminus assumed
SMILES: CC[C@H](C)[C@H](NC(=O)[C@@H](N)Cc1ccc(-c2c(C)noc2C)cc1)C(=O)N[C@H]1CSSC(C)(C)[C@@H](C(=O)N[C@H](C(=O)N2CCC[C@H]2C(N)=O)[C@@H](C)CC)NC(=O)[C@H]([C@@H](C)CC)NC(=O)[C@@H]2C[C@@H]3CCCC[C@@H]3N2C(=O)[C@@H]2CCCN2C(=O)[C@H](CC(C)C)NC(=O)[C@H](CO)NC(=O)[C@H](CCCNC(=N)N)NC(=O)[C@H](CO)NC1=O
B2: Example 349: ((N-Me)G)-IC+SRSLP-(Oic)-IC+IPD-OH (peptide)
peptide: [Sar]ICSRSLP[Oic]ICIPD-OH
modifications: disulfide 3-11; N-terminus assumed
SMILES: CC[C@H](C)[C@H](NC(=O)CNC)C(=O)N[C@H]1CSSC[C@@H](C(=O)N[C@H](C(=O)N2CCC[C@H]2C(=O)N[C@@H](CC(=O)O)C(=O)O)[C@@H](C)CC)NC(=O)[C@H]([C@@H](C)CC)NC(=O)[C@@H]2C[C@@H]3CCCC[C@@H]3N2C(=O)[C@@H]2CCCN2C(=O)[C@H](CC(C)C)NC(=O)[C@H](CO)NC(=O)[C@H](CCCNC(=N)N)NC(=O)[C@H](CO)NC1=O
B3: Example 361: ((N-Me)G)-PIC+SRS-((tBu)A)-PPI-(Pen)+IP-NH2 (peptide)
peptide: [Sar]PICSRS[tBuAla]PPI[Pen]IP-NH2
modifications: disulfide 4-12; N-terminus assumed
SMILES: CC[C@H](C)[C@H](NC(=O)[C@@H]1CCCN1C(=O)CNC)C(=O)N[C@H]1CSSC(C)(C)[C@@H](C(=O)N[C@H](C(=O)N2CCC[C@H]2C(N)=O)[C@@H](C)CC)NC(=O)[C@H]([C@@H](C)CC)NC(=O)[C@@H]2CCCN2C(=O)[C@@H]2CCCN2C(=O)[C@H](CC(C)(C)C)NC(=O)[C@H](CO)NC(=O)[C@H](CCCNC(=N)N)NC(=O)[C@H](CO)NC1=O
B4: Example 350: ((N,N-diMe)G)-IC+SRSLPPIC+IPD-NH2 (peptide)
peptide: [Me2Gly]ICSRSLPPICIPD-NH2
modifications: disulfide 3-11
SMILES: CC[C@H](C)[C@H](NC(=O)CN(C)C)C(=O)N[C@H]1CSSC[C@@H](C(=O)N[C@H](C(=O)N2CCC[C@H]2C(=O)N[C@@H](CC(=O)O)C(N)=O)[C@@H](C)CC)NC(=O)[C@H]([C@@H](C)CC)NC(=O)[C@@H]2CCCN2C(=O)[C@@H]2CCCN2C(=O)[C@H](CC(C)C)NC(=O)[C@H](CO)NC(=O)[C@H](CCCNC(=N)N)NC(=O)[C@H](CO)NC1=O
B5: Example 362: (4-(Aminomethyl)benzoic acid)-IC+SRSLPPI-((N-Me)C)+IPD-NH2 (peptide)
peptide: [4Amb]ICSRSLPPI[NMeC]IPD-NH2
modifications: disulfide 3-11; N-terminus assumed
SMILES: CC[C@H](C)[C@H](NC(=O)c1ccc(CN)cc1)C(=O)N[C@H]1CSSC[C@@H](C(=O)N[C@H](C(=O)N2CCC[C@H]2C(=O)N[C@@H](CC(=O)O)C(N)=O)[C@@H](C)CC)N(C)C(=O)[C@H]([C@@H](C)CC)NC(=O)[C@@H]2CCCN2C(=O)[C@@H]2CCCN2C(=O)[C@H](CC(C)C)NC(=O)[C@H](CO)NC(=O)[C@H](CCCNC(=N)N)NC(=O)[C@H](CO)NC1=O
B6: Example 358: (Isovaleric)-IC+SRS-((tBu)A)-PPI-((N-Me)C)+I-NH2 (peptide)
peptide: Isovaleryl-ICSRS[tBuAla]PPI[NMeC]I-NH2
modifications: disulfide 2-10
SMILES: CC[C@H](C)[C@H](NC(=O)[C@@H]1CSSC[C@H](NC(=O)[C@@H](NC(=O)CC(C)C)[C@@H](C)CC)C(=O)N[C@@H](CO)C(=O)N[C@@H](CCCNC(=N)N)C(=O)N[C@@H](CO)C(=O)N[C@@H](CC(C)(C)C)C(=O)N2CCC[C@H]2C(=O)N2CCC[C@H]2C(=O)N[C@@H]([C@@H](C)CC)C(=O)N1C)C(N)=O
B7: Example 354: ((N-Me)G)-IC+SRSL-((trans-4-Fluoro)P)-PIC+IPD-OH (peptide)
peptide: [Sar]ICSRSL[Pro(trans-4-F)]PICIPD-OH
modifications: disulfide 3-11; N-terminus assumed
SMILES: CC[C@H](C)[C@H](NC(=O)CNC)C(=O)N[C@H]1CSSC[C@@H](C(=O)N[C@H](C(=O)N2CCC[C@H]2C(=O)N[C@@H](CC(=O)O)C(=O)O)[C@@H](C)CC)NC(=O)[C@H]([C@@H](C)CC)NC(=O)[C@@H]2CCCN2C(=O)[C@@H]2C[C@@H](F)CN2C(=O)[C@H](CC(C)C)NC(=O)[C@H](CO)NC(=O)[C@H](CCCNC(=N)N)NC(=O)[C@H](CO)NC1=O
B8: Example 353: (Cyclopropanecarboxylic)-IC+SRS-((tBu)A)-PPI-((N-Me)C)+I-NH2 (peptide)
peptide: Cyclopropanecarbonyl-ICSRS[tBuAla]PPI[NMeC]I-NH2
modifications: disulfide 2-10
SMILES: CC[C@H](C)[C@H](NC(=O)[C@@H]1CSSC[C@H](NC(=O)[C@@H](NC(=O)C2CC2)[C@@H](C)CC)C(=O)N[C@@H](CO)C(=O)N[C@@H](CCCNC(=N)N)C(=O)N[C@@H](CO)C(=O)N[C@@H](CC(C)(C)C)C(=O)N2CCC[C@H]2C(=O)N2CCC[C@H]2C(=O)N[C@@H]([C@@H](C)CC)C(=O)N1C)C(N)=O
B9: Example 352: (D-(+)Biotin)-(Ahx)-AIC+SRS-((tBu)A)-PPI-(Pen)+IPD-OH (peptide)
peptide: XXAICSRS[tBuAla]PPI[Pen]IPD-OH
modifications: disulfide 5-13; not fully specified (N-terminus); printed as (D-(+)Biotin)-(Ahx)-AIC + SRS-((tBu)A)-PPI-(Pen) + IPD-OH
B10: Example 359: (tert-Butylacetic acid)-IC+SRS-((tBu)A)-PPI-(Pen)+IP-NH2 (peptide)
peptide: {Butanoyl(3,3-Me2)}-ICSRS[tBuAla]PPI[Pen]IP-NH2
modifications: disulfide 2-10
SMILES: CC[C@H](C)[C@H](NC(=O)CC(C)(C)C)C(=O)N[C@H]1CSSC(C)(C)[C@@H](C(=O)N[C@H](C(=O)N2CCC[C@H]2C(N)=O)[C@@H](C)CC)NC(=O)[C@H]([C@@H](C)CC)NC(=O)[C@@H]2CCCN2C(=O)[C@@H]2CCCN2C(=O)[C@H](CC(C)(C)C)NC(=O)[C@H](CO)NC(=O)[C@H](CCCNC(=N)N)NC(=O)[C@H](CO)NC1=O

Numbered stars: 1 amine (or outer) side, 2 acyl side, 3 side chain; on linkers, the order of the positions; unused ones are H or OH. Bridge positions count the residues as written; N and C are the ends. Square brackets hold non-standard residues; d marks the D form. Ends that are not written are not given here. * marks the point of attachment. X7 = 4‑(3,5-Dimethyl-1,2-oxazol-4-yl)‑L‑phenylalanine, Cc1noc(C)c1-c1ccc(C[C@H](N[*:1])C(=O)[*:2])cc1; Pro(trans-4-F) = O=C(O)[C@@H]1C[C@@H](F)CN1; Oic = O=C(O)[C@@H]1C[C@@H]2CCCC[C@@H]2N1; Morpholine(3S-CO) = O=C(O)[C@@H]1COCCN1; Butanoyl(3,3-Me2) = CC(C)(C)CC(=O)*; Cyclopropanecarbonyl = O=C(C1CC1)*; tBuAla = CC(C)(C)C[C@H](N)C(=O)O; Pen = CC(C)(S)[C@H](N)C(=O)O; 4Amb = NCc1ccc(C(=O)O)cc1; Isovaleryl = CC(C)CC(=O)*; NMeC = CN[C@@H](CS)C(=O)O; Me2Gly = CN(C)CC(=O)*; Sar = CNCC(=O)O

For the first assay, the target named is recombinant human MASP2 active protease (amino acids 297-686, C-terminal His Tag) (human, UniProt O00187 297-686). Briefly: cell-based or functional assay.
Chain of recombinant human MASP2 active protease (amino acids 297-686, C-terminal His Tag) (O00187 other isoform, or with tags, fused parts or gaps limits assumed): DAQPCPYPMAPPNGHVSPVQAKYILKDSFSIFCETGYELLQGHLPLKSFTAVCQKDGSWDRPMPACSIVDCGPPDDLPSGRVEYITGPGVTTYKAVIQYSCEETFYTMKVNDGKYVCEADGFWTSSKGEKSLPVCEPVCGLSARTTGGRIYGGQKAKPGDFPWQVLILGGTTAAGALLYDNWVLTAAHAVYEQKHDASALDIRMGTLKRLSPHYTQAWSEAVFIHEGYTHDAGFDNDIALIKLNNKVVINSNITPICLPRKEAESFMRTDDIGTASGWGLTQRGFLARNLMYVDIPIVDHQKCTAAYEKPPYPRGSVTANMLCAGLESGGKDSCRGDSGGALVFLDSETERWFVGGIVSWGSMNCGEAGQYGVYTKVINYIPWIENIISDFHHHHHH
Take B1: the “human MASP2 IC50” value was 55 nM.
Regarding B2, the “human MASP2 IC50” value is 420 nM.
The same measure, in the same setting: next, Tranexamic-ICSRSLPPI[NMeC]IPD-NH2 (disulfide 2-10) [Example 364: (Tranexamic)-IC+SRSLPPI-((N-Me)C)+IPD-NH2]: 98 nM; B3: 1000 nM.
Turning to B4, the “human MASP2 IC50” value was 370 nM.
Same read-out and setting: for B5 the value was 65 nM; for B6, 19 nM; for GICSRSL[Morpholine(3S-CO)]PICIPD-OH (disulfide 3-11) [Example 357: GIC+SRSL-(Morpholine-3-carboxylic)-PIC+IPD-OH], 1300 nM.
Still for that read-out and setting: next, B7: 510 nM.
As to B8, the “human MASP2 IC50” value was 50 nM.
Still for that read-out and setting: for AICSRSLP[(3S-OH)P]ICIPD-NH2 (disulfide 3-11) [Example 355: AIC+SRSLP-((3S-OH)P)-IC+IPD-NH2] the value was 930 nM.
Same read-out and setting: next, B9: 71 nM.
Still for that read-out and setting: for B10 the value was 34 nM.

Another assay concerns the target T1, recombinant human MASP1 active protease …. Briefly: cell-based or functional assay.
B1: the “human MASP1 IC50” value was found to be 31 nM.
Same read-out and setting: for B2 the value was 9.6 nM.
Still for that read-out and setting: for Tranexamic-ICSRSLPPI[NMeC]IPD-NH2 (disulfide 2-10) [Example 364: (Tranexamic)-IC+SRSLPPI-((N-Me)C)+IPD-NH2] the value was 33 nM.
B3: the “human MASP1 IC50” value turned out to be 32 nM.
In the case of B4, the “human MASP1 IC50” value is 28 nM.
With B5, the “human MASP1 IC50” value was 33 nM.
On the same count and under the same terms, next, B6: 31 nM; GICSRSL[Morpholine(3S-CO)]PICIPD-OH (disulfide 3-11) [Example 357: GIC+SRSL-(Morpholine-3-carboxylic)-PIC+IPD-OH]: 31 nM.
B7: the “human MASP1 IC50” value turned out to be 29 nM.
In the case of B8, the “human MASP1 IC50” value was 28 nM.
For AICSRSLP[(3S-OH)P]ICIPD-NH2 (disulfide 3-11) [Example 355: AIC+SRSLP-((3S-OH)P)-IC+IPD-NH2], the “human MASP1 IC50” value came to 29 nM.
Regarding B9, the “human MASP1 IC50” value was determined as 28 nM.
Still for that read-out and setting: for B10 the value was 31 nM.

For the origin of these results see patent publication US20210246166A1 (Bayer, published 2021).
